Key:
GLD-1-STAR [1] = biological target: T1, GLD-1-STAR (C. elegans, UniProt Q17339 135-336); experiment: competition FP; conditions: probe TGE; 10 mM Tris pH 8.0, 25 mM NaCl, 0.1 mM EDTA, 0.1 mg/mL tRNA, 5 ug/mL heparin, 0.01% IGEPAL CA630, room temperature, 3 h; EMSA gel 6% native, 0.5x TBE, 4 C
T1 sequence: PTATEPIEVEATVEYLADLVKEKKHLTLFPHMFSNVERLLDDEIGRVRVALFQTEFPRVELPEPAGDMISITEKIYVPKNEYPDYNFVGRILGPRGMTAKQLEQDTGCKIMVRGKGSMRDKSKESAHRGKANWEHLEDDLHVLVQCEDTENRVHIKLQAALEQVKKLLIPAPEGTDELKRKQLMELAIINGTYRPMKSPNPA

STAR-2-STAR (C. elegans) [2] = experiment: competition FP; conditions: probe TGE; 10 mM Tris pH 8.0, 25 mM NaCl, 0.1 mM EDTA, 0.1 mg/mL tRNA, 5 ug/mL heparin, 0.01% IGEPAL CA630, room temperature, 3 h; EMSA gel 6% native, 0.5x TBE, 4 C
STAR-2-STAR (C. elegans) [3] = experiment: EMSA; conditions: 10 mM Tris pH 8.0, 25 mM NaCl, 0.1 mM EDTA, 0.1 mg/mL tRNA, 5 ug/mL heparin, 0.01% IGEPAL CA630, room temperature, 3 h; EMSA gel 6% native, 0.5x TBE, 4 C
STAR-2-STAR (C. elegans) [4] = experiment: fluorescence polarization; conditions: 10 mM Tris pH 8.0, 25 mM NaCl, 0.1 mM EDTA, 0.1 mg/mL tRNA, 5 ug/mL heparin, 0.01% IGEPAL CA630, room temperature, 3 h; EMSA gel 6% native, 0.5x TBE, 4 C
Qk-1-STAR [5] = biological target: T2, Qk-1-STAR (mouse, UniProt Q9QYS9 7-214); experiment: EMSA; first shift (K1); 10 mM Tris pH 8.0, 25 mM NaCl, 0.1 mM EDTA, 0.1 mg/mL tRNA, 5 ug/mL heparin, 0.01% IGEPAL CA630, room temperature, 3 h; EMSA gel 6% native, 0.5x TBE, 4 C; conditions: protein: recombinant; tags: MBP fusion; chain copies: 2; label: 5' 32P
T2 sequence: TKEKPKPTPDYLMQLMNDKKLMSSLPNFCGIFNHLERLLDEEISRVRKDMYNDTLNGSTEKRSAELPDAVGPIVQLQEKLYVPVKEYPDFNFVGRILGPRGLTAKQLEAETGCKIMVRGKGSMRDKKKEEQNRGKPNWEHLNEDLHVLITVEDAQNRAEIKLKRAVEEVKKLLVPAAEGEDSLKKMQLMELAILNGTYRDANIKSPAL

Qk-1-STAR [6] = biological target: T2, Qk-1-STAR; experiment: EMSA; second shift (K2); 10 mM Tris pH 8.0, 25 mM NaCl, 0.1 mM EDTA, 0.1 mg/mL tRNA, 5 ug/mL heparin, 0.01% IGEPAL CA630, room temperature, 3 h; EMSA gel 6% native, 0.5x TBE, 4 C; conditions: protein: recombinant; tags: MBP fusion; chain copies: 2; label: 5' 32P
GLD-1-STAR [7] = biological target: T1, GLD-1-STAR; experiment: competition FP; probe TGE; 10 mM Tris pH 8.0, 25 mM NaCl, 0.1 mM EDTA, 0.1 mg/mL tRNA, 5 ug/mL heparin, 0.01% IGEPAL CA630, room temperature, 3 h; EMSA gel 6% native, 0.5x TBE, 4 C; conditions: protein: recombinant; tags: MBP fusion; chain copies: 2
GLD-1-STAR [8] = biological target: T1, GLD-1-STAR; experiment: as above; conditions: protein: recombinant, tags: MBP fusion, chain copies: 2
Qk-1-STAR [9] = biological target: T2, Qk-1-STAR; experiment: EMSA; 10 mM Tris pH 8.0, 25 mM NaCl, 0.1 mM EDTA, 0.1 mg/mL tRNA, 5 ug/mL heparin, 0.01% IGEPAL CA630, room temperature, 3 h; EMSA gel 6% native, 0.5x TBE, 4 C; conditions: protein: recombinant, tags: MBP fusion, chain copies: 2
Qk-1-STAR [10] = biological target: T2, Qk-1-STAR; experiment: competition FP; probe C21A TGE; 10 mM Tris pH 8.0, 25 mM NaCl, 0.1 mM EDTA, 0.1 mg/mL tRNA, 5 ug/mL heparin, 0.01% IGEPAL CA630, room temperature, 3 h; EMSA gel 6% native, 0.5x TBE, 4 C; conditions: protein: recombinant; tags: MBP fusion; chain copies: 2
GLD-1-STAR [11] = biological target: T1, GLD-1-STAR; experiment: competition FP; slightly tighter than WT 12-mer; 10 mM Tris pH 8.0, 25 mM NaCl, 0.1 mM EDTA, 0.1 mg/mL tRNA, 5 ug/mL heparin, 0.01% IGEPAL CA630, room temperature, 3 h; EMSA gel 6% native, 0.5x TBE, 4 C; conditions: protein: recombinant; tags: MBP fusion; chain copies: 2
Qk-1-STAR [12] = biological target: T2, Qk-1-STAR; experiment: fluorescence polarization; 10 mM Tris pH 8.0, 25 mM NaCl, 0.1 mM EDTA, 0.1 mg/mL tRNA, 5 ug/mL heparin, 0.01% IGEPAL CA630, room temperature, 3 h; EMSA gel 6% native, 0.5x TBE, 4 C; conditions: protein: recombinant; tags: MBP fusion; chain copies: 2; label: 5' 32P (EMSA), 5' fluorescein (FP)
GLD-1-STAR [13] = biological target: T1, GLD-1-STAR; experiment: as above; conditions: protein: recombinant; tags: MBP fusion; chain copies: 2; label: 5' 32P (EMSA), 5' fluorescein (FP)
GLD-1-STAR [14] = biological target: T1, GLD-1-STAR; experiment: fluorescence polarization; slightly tighter than WT TGE; 10 mM Tris pH 8.0, 25 mM NaCl, 0.1 mM EDTA, 0.1 mg/mL tRNA, 5 ug/mL heparin, 0.01% IGEPAL CA630, room temperature, 3 h; EMSA gel 6% native, 0.5x TBE, 4 C; conditions: protein: recombinant; tags: MBP fusion; chain copies: 2; label: 5' 32P (EMSA), 5' fluorescein (FP)
[15] = label: 5' 32P (EMSA), 5' fluorescein (FP)

Molecule: poly-U, two hexamers, 0-nt spacing
- Ki (GLD-1-STAR [1]): 25.3 nM

Molecule: poly-U, two hexamers, 2-nt spacing
- Ki (GLD-1-STAR [1]): 22.7 nM

Molecule: poly-U, two hexamers, 12-nt spacing
- Ki (GLD-1-STAR [1]): 4.8 nM

Molecule: AUCUACUCAUAU [WT TGE half-site 12-mer (14-25; A21C in the A21 background)]
- IC50 ratio (IC50 TGE/WT half-site) (STAR-2-STAR (C. elegans) [2]): 0.13

Molecule: poly-U, two hexamers, 4-nt spacing
- Ki (GLD-1-STAR [1]): 12.2 nM

Molecule: poly-U, one hexamer at 5' end
- Ki (GLD-1-STAR [1]): 110 nM

Molecule: AUCUACUAAUAU [C21A (A21) half-site 12-mer]
- IC50 ratio (IC50 TGE/C21A 12-mer) (STAR-2-STAR (C. elegans) [2]): 2.7
- IC50 ratio, WT half-site vs mutant probe (IC50 WT half-site/C21A) (STAR-2-STAR (C. elegans) [2]): 20

Molecule: UAUUUAAUUUCUUAUCUACUCAUAUCUA [WT TGE 28-mer]
- Kd (STAR-2-STAR (C. elegans) [3]): 36 nM
- Kd (STAR-2-STAR (C. elegans) [4]): 40 nM

Molecule: AUCUAAUCAUAU [C19A 12-mer (WT background)]
- IC50 ratio, WT half-site vs mutant probe (IC50 WT half-site/C19A) (STAR-2-STAR (C. elegans) [2]): 4.2

Molecule: UAUUUAAUUUCUUAUCUACUAAUAUCUA [C21A TGE 28-mer]
- Kd (STAR-2-STAR (C. elegans) [3]): 1.2 nM
- Kd (STAR-2-STAR (C. elegans) [4]): 5 nM

B1: MBP:2-3'm2 (ssRNA)
RNA: GACACACUAACCUCGGUGGAAACUCUUACAU
- Kd (Qk-1-STAR [5]): 69 nM
- Kd (Qk-1-STAR [6]): 199 nM

B2: TGE 1-18 (ssRNA)
RNA: UAUUUAAUUUCUUAUCUA
- binding signal (GLD-1-STAR [7]): 42 fold weaker than TGE

B3: TGE 56-67 (ssRNA)
RNA: AUCUAAUCGUCC
- binding signal (GLD-1-STAR [7]): 32 fold weaker than TGE

B4: TGE 46-67 (ssRNA)
RNA: AUCUACUCAUAUCUAAUCGUCC
- Ki (GLD-1-STAR [8]): 10.7 ± 2 nM

B5: poly-U 28-mer (ssRNA)
RNA: UUUUUUUUUUUUUUUUUUUUUUUUUUUU
- binding result (GLD-1-STAR [8]): no binding

B6: MBP:2-5'm1 (ssRNA)
RNA: GACACUCGGUGCUCGGUGGAAAAAUAACCAU
- Kd (Qk-1-STAR [9]; label: 5' 32P, predicted secondary structure (mfold)): 498 nM

B7: C21A TGE 5' mutant (ssRNA)
RNA: UAUUCUCUUUCUUAUCUACUAAUAUCUA
- Kd (Qk-1-STAR [9]; label: 5' 32P): 7.1 ± 1 nM

B8: C21A (A21) half-site 12-mer (ssRNA)
RNA: AUCUACUAAUAU
- Ki (Qk-1-STAR [10]): 46 nM
- binding result (GLD-1-STAR [11]): binds

B9: WT TGE 28-mer (ssRNA)
RNA: UAUUUAAUUUCUUAUCUACUCAUAUCUA
- Kd (Qk-1-STAR [9]; [15]): 49 ± 2 nM
- Ki (GLD-1-STAR [8]; [15]): 11.1 ± 4 nM
- Kd (Qk-1-STAR [12]): 63 ± 4 nM
- Kd (GLD-1-STAR [13]): 32 ± 3 nM

B10: C19A 12-mer (A21 background) (ssRNA)
RNA: AUCUAAUAAUAU
- binding result (Qk-1-STAR [10]): no binding

B11: MBP:2 (WT) (ssRNA)
RNA: GACACACUAACCUCGGUGGAAAAAUAACCAU
- Kd (Qk-1-STAR [5]): 24.5 ± 5 nM
- Kd (Qk-1-STAR [6]): 269 ± 122 nM

B12: MBP:2-5'm2 (ssRNA)
RNA: GACACUCUCUCCUCGGUGGAAAAAUAACCAU
- Kd (Qk-1-STAR [9]; label: 5' 32P): 100 nM

B13: TGE 14-35 (ssRNA)
RNA: AUCUACUCAUAUCUACUCAUAU
- Ki (GLD-1-STAR [8]): 4.6 ± 0.8 nM

B14: WT TGE half-site 12-mer (14-25; A21C in the A21 background) (ssRNA)
RNA: AUCUACUCAUAU
- binding result (Qk-1-STAR [10]): no binding
- binding signal (GLD-1-STAR [7]): ~9 fold weaker than TGE

B15: C21A TGE 28-mer (ssRNA)
RNA: UAUUUAAUUUCUUAUCUACUAAUAUCUA
- Kd (Qk-1-STAR [9]; [15]): 1.2 ± 0.2 nM
- Kd (Qk-1-STAR [12]): 13 ± 2 nM
- binding result (GLD-1-STAR [14]): binds
